Test results as given in IntAct's records for PubMed 24792722.

B1: Rho guanine nucleotide exchange factor 7 (Homo sapiens), Q14155 (parent)
chain: MNSAEQTVTWLITLGVLESPKKTISDPEGFLQASLKDGVVLCRLLERLLPGTIEKVYPEPRSESECLSNIREFLRGCGASLRLELLFPPSQPPQHLVTTILLSASTFDANDLYQGQNFNKVLSSLVTLNKVTADIGLGSDSVCARPSSHRIKSFDSLGSQSLHTRTSKLFQGQYRSLDMTDNSNNQLVVRAKFNFQQTNEDELSFSKGDVIHVTRVEEGGWWEGTLNGRTGWFPSNYVREVKASEKPVSPKSGTLKSPPKGFDTTAINKSYYNVVLQNILETENEYSKELQTVLSTYLRPLQTSEKLSSANISYLMGNLEEICSFQQMLVQSLEECTKLPEAQQRVGGCFLNLMPQMKTLYLTYCANHPSAVNVLTEHSEELGEFMETKGASSPGILVLTTGLSKPFMRLDKYPTLLKELERHMEDYHTDRQDIQKSMAAFKNLSAQCQEVRKRKELELQILTEAIRNWEGDDIKTLGNVTYMSQVLIQCAGSEEKNERYLLLFPNVLLMLSASPRMSGFIYQGKLPTTGMTITKLEDSENHRNAFEISGSMIERILVSCNNQQDLQEWVEHLQKQTKVTSVGNPTIKPHSVPSHTLPSHPVTPSSKHADSKPAPLTPAYHTLPHPSHHGTPHTTINWGPLEPPKTPKPWSLSCLRPAPPLRPSAALCYKEDLSKSPKTMKKLLPKRKPERKPSDEEFASRKSTAALEEDAQILKVIEAYCTSAKTRQTLNSTWQGTDLMHNHVLADDDQPSLDSLGRRSSLSRLEPSDLSEDSDYDSIWTAHSYRMGSTSRKSCCSYISHQN

Variants of: B1
Settings: with rac1_human RAC1, P63000

Variant	effect of a mutation on the interaction
P340E	increasing interaction
